Experimental findings from doi:10.1101/2021.05.25.445681 (bioRxiv, 2021) are described below.

This data set deals with the molecule itself. As to the kind of experiment: cryo-EM structure.

B1: E. coli MsbA (natural protein)
chain: MHNDKDLSTWQTFRRLWPTIAPFKAGLIVAGVALILNAASDTFMLSLLKPLLDDGFGKTDRSVLVWMPLVVIGLMILRGITSYVSSYCISWVSGKVVMTMRRRLFGHMMGMPVSFFDKQSTGTLLSRITYDSEQVASSSSGALITVVREGASIIGLFIMMFYYSWQLSIILIVLAPIVSIAIRVVSKRFRNISKNMQNTMGQVTTSAEQMLKGHKEVLIFGGQEVETKRFDKVSNRMRLQGMKMVSASSISDPIIQLIASLALAFVLYAASFPSVMDSLTAGTITVVFSSMIALMRPLKSLTNVNAQFQRGMAACQTLFTILDSEQEKDEGKRVIERATGDVEFRNVTFTYPGRDVPALRNINLKIPAGKTVALVGRSGSGKSTIASLITRFYDIDEGEILMDGHDLREYTLASLRNQVALVSQNVHLFNDTVANNIAYARTEQYSREQIEEAARMAYAMDFINKMDNGLDTVIGENGVLLSGGQRQRIAIARALLRDSPILILDEATSALDTESERAIQAALDELQKNRTSLVIAHRLSTIEKADEIVVVEDGVIVERGTHNDLLEHRGVYAQLHKMQFGQ
Take B1: the binding result is on record as “binds”.
